# Patent US20150030560A1
# Columns and labels:
# [1] = target: Detergent-soluble HLA-DR1 purified from LG-2 cells (DRB1*0101) (human)
# [2] = target: Detergent-soluble HLA-DR4 purified from Priess cells (DRB1*0401) (human)
# [3] = target: Detergent-soluble HLA-DR2 purified from MGAR cells (DRB1*1501) (human)
Kd [1] [nM],Substance,IC50 [1] [µM],IC50 [2] [µM],Kd [2] [nM],IC50 [3] [µM],Kd [3] [nM]
,"GAL terpolymer (SD-1689), poly[L-Glu 0.153, L-Ala 0.479, L-Lys 0.365] (peptide)",< 1000,< 1000,3,< 1000,17
,"TAL terpolymer (SD-1691), poly[L-Tyr 0.102, L-Ala 0.542, L-Lys 0.353] (peptide)",3.3,,,2.7,17
4,"GTL terpolymer (SD-1697), poly[L-Tyr 0.162, L-Glu 0.259, L-Lys 0.579] (peptide)",43,43,8,25.4,
74,Copolymer 1 (peptide),8.8,10.8,15,10.1,82

Substance,Kd [1] [nM],IC50 [1] [µM],IC50 [2] [µM],Kd [2] [nM],IC50 [3] [µM],Kd [3] [nM]
"TGA terpolymer (SD-1690), poly[L-Tyr 0.136, L-Glu 0.21, L-Ala 0.648] (peptide)",10,1.3,1,8,9.5,8
